Test results reported in PMC9279507.

T1: 6XHis-tagged TgIST-R2 (G365-S420)
T1 chain: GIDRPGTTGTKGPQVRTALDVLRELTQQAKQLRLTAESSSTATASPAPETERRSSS

B1: STAT1cc (STAT1 core fragment, A656C and N658C, locked dimer), tag-free, P42224 M654A (protein)
chain: STVMLDKQKELDSKVRNVKDKVMCIEHEIKSLEDLQDEYDFKCKTLQNREHETNGVAKSDQKQEQLLLKKMYLMLDNKRKEVVHKIIELLNVTELTQNALINDELVEWKRRQQSACIGGPPNACLDQLQNWFTIVAESLQQVRQQLKKLEELEQKYTYEHDPITKNKQVLWDRTFSLFQQLIQSSFVVERQPCMPTHPQRPLVLKTGVQFTVKLRLLVKLQELNYNLKVKVLFDKDVNERNTVKGFRKFNILGTHTKVMNMEESTNGSLAAEFRHLQLKEQKNAGTRTNEGPLIVTEELHSLSFETQLCQPGLVIDLETTSLPVVVISNVSQLPSGWASILWYNMLVAEPRNLSFFLTPPCARWAQLSEVLSWQFSSVTKRGLNVDQLNMLGEKLLGPNASPDGLIPWTRFCKENINDKNFPFWLWIESILELIKKHLLPLWNDGCIMGFISKERERALLKDQQPGTFLLRFSESSREGAITFTWVERSQNGGEPDFHAVEPYTKKELSAVTFPDIIRNYKVAACECIPENPLKYLYPNIDKDHAFGKYYSRPKEAPEPMELDGPKGTGYIKTELISVSEVH
B2: STAT1cc (STAT1 core fragment, A656C and N658C, locked dimer), tag-free, P42224 E618A (protein)
chain: MSQWYELQQLDSKFLEQVHQLYDDSFPMEIRQYLAQWLEKQDWEHAANDVSFATIRFHDLLSQLDDQYSRFSLENNFLLQHNIRKSKRNLQDNFQEDPIQMSMIIYSCLKEERKILENAQRFNQAQSGNIQSTVMLDKQKELDSKVRNVKDKVMCIEHEIKSLEDLQDEYDFKCKTLQNREHETNGVAKSDQKQEQLLLKKMYLMLDNKRKEVVHKIIELLNVTELTQNALINDELVEWKRRQQSACIGGPPNACLDQLQNWFTIVAESLQQVRQQLKKLEELEQKYTYEHDPITKNKQVLWDRTFSLFQQLIQSSFVVERQPCMPTHPQRPLVLKTGVQFTVKLRLLVKLQELNYNLKVKVLFDKDVNERNTVKGFRKFNILGTHTKVMNMEESTNGSLAAEFRHLQLKEQKNAGTRTNEGPLIVTEELHSLSFETQLCQPGLVIDLETTSLPVVVISNVSQLPSGWASILWYNMLVAEPRNLSFFLTPPCARWAQLSEVLSWQFSSVTKRGLNVDQLNMLGEKLLGPNASPDGLIPWTRFCKENINDKNFPFWLWIESILELIKKHLLPLWNDGCIMGFISKERERALLKDQQPGTFLLRFSESSREGAITFTWVARSQNGGEPDFHAVEPYTKKELSAVTFPDIIRNYKVMAAENIPENPLKYLYPNIDKDHAFGKYYSRPKEAPEPMELDGPKGTGYIKTELISVSEVHPSRLQTTDNLLPMSPEEFDEVSRIVGSVEFDSMMNTV
B3: STAT1cc (STAT1 core fragment, A656C and N658C, locked dimer), tag-free, P42224 Q621A (protein)
chain: MSQWYELQQLDSKFLEQVHQLYDDSFPMEIRQYLAQWLEKQDWEHAANDVSFATIRFHDLLSQLDDQYSRFSLENNFLLQHNIRKSKRNLQDNFQEDPIQMSMIIYSCLKEERKILENAQRFNQAQSGNIQSTVMLDKQKELDSKVRNVKDKVMCIEHEIKSLEDLQDEYDFKCKTLQNREHETNGVAKSDQKQEQLLLKKMYLMLDNKRKEVVHKIIELLNVTELTQNALINDELVEWKRRQQSACIGGPPNACLDQLQNWFTIVAESLQQVRQQLKKLEELEQKYTYEHDPITKNKQVLWDRTFSLFQQLIQSSFVVERQPCMPTHPQRPLVLKTGVQFTVKLRLLVKLQELNYNLKVKVLFDKDVNERNTVKGFRKFNILGTHTKVMNMEESTNGSLAAEFRHLQLKEQKNAGTRTNEGPLIVTEELHSLSFETQLCQPGLVIDLETTSLPVVVISNVSQLPSGWASILWYNMLVAEPRNLSFFLTPPCARWAQLSEVLSWQFSSVTKRGLNVDQLNMLGEKLLGPNASPDGLIPWTRFCKENINDKNFPFWLWIESILELIKKHLLPLWNDGCIMGFISKERERALLKDQQPGTFLLRFSESSREGAITFTWVERSANGGEPDFHAVEPYTKKELSAVTFPDIIRNYKVMAAENIPENPLKYLYPNIDKDHAFGKYYSRPKEAPEPMELDGPKGTGYIKTELISVSEVHPSRLQTTDNLLPMSPEEFDEVSRIVGSVEFDSMMNTV
B4: STAT1cc (STAT1 core fragment, A656C and N658C, locked dimer), tag-free, P42224 D672A (protein)
chain: MSQWYELQQLDSKFLEQVHQLYDDSFPMEIRQYLAQWLEKQDWEHAANDVSFATIRFHDLLSQLDDQYSRFSLENNFLLQHNIRKSKRNLQDNFQEDPIQMSMIIYSCLKEERKILENAQRFNQAQSGNIQSTVMLDKQKELDSKVRNVKDKVMCIEHEIKSLEDLQDEYDFKCKTLQNREHETNGVAKSDQKQEQLLLKKMYLMLDNKRKEVVHKIIELLNVTELTQNALINDELVEWKRRQQSACIGGPPNACLDQLQNWFTIVAESLQQVRQQLKKLEELEQKYTYEHDPITKNKQVLWDRTFSLFQQLIQSSFVVERQPCMPTHPQRPLVLKTGVQFTVKLRLLVKLQELNYNLKVKVLFDKDVNERNTVKGFRKFNILGTHTKVMNMEESTNGSLAAEFRHLQLKEQKNAGTRTNEGPLIVTEELHSLSFETQLCQPGLVIDLETTSLPVVVISNVSQLPSGWASILWYNMLVAEPRNLSFFLTPPCARWAQLSEVLSWQFSSVTKRGLNVDQLNMLGEKLLGPNASPDGLIPWTRFCKENINDKNFPFWLWIESILELIKKHLLPLWNDGCIMGFISKERERALLKDQQPGTFLLRFSESSREGAITFTWVERSQNGGEPDFHAVEPYTKKELSAVTFPDIIRNYKVMAAENIPENPLKYLYPNIAKDHAFGKYYSRPKEAPEPMELDGPKGTGYIKTELISVSEVHPSRLQTTDNLLPMSPEEFDEVSRIVGSVEFDSMMNTV
B5: STAT1cc (STAT1 core fragment, A656C and N658C, locked dimer), tag-free, P42224 N662K (protein)
chain: MSQWYELQQLDSKFLEQVHQLYDDSFPMEIRQYLAQWLEKQDWEHAANDVSFATIRFHDLLSQLDDQYSRFSLENNFLLQHNIRKSKRNLQDNFQEDPIQMSMIIYSCLKEERKILENAQRFNQAQSGNIQSTVMLDKQKELDSKVRNVKDKVMCIEHEIKSLEDLQDEYDFKCKTLQNREHETNGVAKSDQKQEQLLLKKMYLMLDNKRKEVVHKIIELLNVTELTQNALINDELVEWKRRQQSACIGGPPNACLDQLQNWFTIVAESLQQVRQQLKKLEELEQKYTYEHDPITKNKQVLWDRTFSLFQQLIQSSFVVERQPCMPTHPQRPLVLKTGVQFTVKLRLLVKLQELNYNLKVKVLFDKDVNERNTVKGFRKFNILGTHTKVMNMEESTNGSLAAEFRHLQLKEQKNAGTRTNEGPLIVTEELHSLSFETQLCQPGLVIDLETTSLPVVVISNVSQLPSGWASILWYNMLVAEPRNLSFFLTPPCARWAQLSEVLSWQFSSVTKRGLNVDQLNMLGEKLLGPNASPDGLIPWTRFCKENINDKNFPFWLWIESILELIKKHLLPLWNDGCIMGFISKERERALLKDQQPGTFLLRFSESSREGAITFTWVERSQNGGEPDFHAVEPYTKKELSAVTFPDIIRNYKVMAAENIPEKPLKYLYPNIDKDHAFGKYYSRPKEAPEPMELDGPKGTGYIKTELISVSEVHPSRLQTTDNLLPMSPEEFDEVSRIVGSVEFDSMMNTV
B6: STAT1cc (STAT1 core fragment, A656C and N658C, locked dimer), tag-free, P42224 D593A (protein)
chain: MSQWYELQQLDSKFLEQVHQLYDDSFPMEIRQYLAQWLEKQDWEHAANDVSFATIRFHDLLSQLDDQYSRFSLENNFLLQHNIRKSKRNLQDNFQEDPIQMSMIIYSCLKEERKILENAQRFNQAQSGNIQSTVMLDKQKELDSKVRNVKDKVMCIEHEIKSLEDLQDEYDFKCKTLQNREHETNGVAKSDQKQEQLLLKKMYLMLDNKRKEVVHKIIELLNVTELTQNALINDELVEWKRRQQSACIGGPPNACLDQLQNWFTIVAESLQQVRQQLKKLEELEQKYTYEHDPITKNKQVLWDRTFSLFQQLIQSSFVVERQPCMPTHPQRPLVLKTGVQFTVKLRLLVKLQELNYNLKVKVLFDKDVNERNTVKGFRKFNILGTHTKVMNMEESTNGSLAAEFRHLQLKEQKNAGTRTNEGPLIVTEELHSLSFETQLCQPGLVIDLETTSLPVVVISNVSQLPSGWASILWYNMLVAEPRNLSFFLTPPCARWAQLSEVLSWQFSSVTKRGLNVDQLNMLGEKLLGPNASPDGLIPWTRFCKENINDKNFPFWLWIESILELIKKHLLPLWNDGCIMGFISKERERALLKAQQPGTFLLRFSESSREGAITFTWVERSQNGGEPDFHAVEPYTKKELSAVTFPDIIRNYKVMAAENIPENPLKYLYPNIDKDHAFGKYYSRPKEAPEPMELDGPKGTGYIKTELISVSEVHPSRLQTTDNLLPMSPEEFDEVSRIVGSVEFDSMMNTV
B7: STAT1cc (STAT1 core fragment, A656C and N658C, locked dimer), tag-free, P42224 Q621W (protein)
chain: MSQWYELQQLDSKFLEQVHQLYDDSFPMEIRQYLAQWLEKQDWEHAANDVSFATIRFHDLLSQLDDQYSRFSLENNFLLQHNIRKSKRNLQDNFQEDPIQMSMIIYSCLKEERKILENAQRFNQAQSGNIQSTVMLDKQKELDSKVRNVKDKVMCIEHEIKSLEDLQDEYDFKCKTLQNREHETNGVAKSDQKQEQLLLKKMYLMLDNKRKEVVHKIIELLNVTELTQNALINDELVEWKRRQQSACIGGPPNACLDQLQNWFTIVAESLQQVRQQLKKLEELEQKYTYEHDPITKNKQVLWDRTFSLFQQLIQSSFVVERQPCMPTHPQRPLVLKTGVQFTVKLRLLVKLQELNYNLKVKVLFDKDVNERNTVKGFRKFNILGTHTKVMNMEESTNGSLAAEFRHLQLKEQKNAGTRTNEGPLIVTEELHSLSFETQLCQPGLVIDLETTSLPVVVISNVSQLPSGWASILWYNMLVAEPRNLSFFLTPPCARWAQLSEVLSWQFSSVTKRGLNVDQLNMLGEKLLGPNASPDGLIPWTRFCKENINDKNFPFWLWIESILELIKKHLLPLWNDGCIMGFISKERERALLKDQQPGTFLLRFSESSREGAITFTWVERSWNGGEPDFHAVEPYTKKELSAVTFPDIIRNYKVMAAENIPENPLKYLYPNIDKDHAFGKYYSRPKEAPEPMELDGPKGTGYIKTELISVSEVHPSRLQTTDNLLPMSPEEFDEVSRIVGSVEFDSMMNTV
B8: STAT1cc (STAT1 core fragment, A656C and N658C, locked dimer), tag-free, P42224 E632A (protein)
chain: MSQWYELQQLDSKFLEQVHQLYDDSFPMEIRQYLAQWLEKQDWEHAANDVSFATIRFHDLLSQLDDQYSRFSLENNFLLQHNIRKSKRNLQDNFQEDPIQMSMIIYSCLKEERKILENAQRFNQAQSGNIQSTVMLDKQKELDSKVRNVKDKVMCIEHEIKSLEDLQDEYDFKCKTLQNREHETNGVAKSDQKQEQLLLKKMYLMLDNKRKEVVHKIIELLNVTELTQNALINDELVEWKRRQQSACIGGPPNACLDQLQNWFTIVAESLQQVRQQLKKLEELEQKYTYEHDPITKNKQVLWDRTFSLFQQLIQSSFVVERQPCMPTHPQRPLVLKTGVQFTVKLRLLVKLQELNYNLKVKVLFDKDVNERNTVKGFRKFNILGTHTKVMNMEESTNGSLAAEFRHLQLKEQKNAGTRTNEGPLIVTEELHSLSFETQLCQPGLVIDLETTSLPVVVISNVSQLPSGWASILWYNMLVAEPRNLSFFLTPPCARWAQLSEVLSWQFSSVTKRGLNVDQLNMLGEKLLGPNASPDGLIPWTRFCKENINDKNFPFWLWIESILELIKKHLLPLWNDGCIMGFISKERERALLKDQQPGTFLLRFSESSREGAITFTWVERSQNGGEPDFHAVAPYTKKELSAVTFPDIIRNYKVMAAENIPENPLKYLYPNIDKDHAFGKYYSRPKEAPEPMELDGPKGTGYIKTELISVSEVHPSRLQTTDNLLPMSPEEFDEVSRIVGSVEFDSMMNTV

Biological target: T1, 6XHis-tagged TgIST-R2 (G365-S420)
Test: nickel affinity copurification, SDS-PAGE, Coomassie blue band quantification
Settings: chain shown with the change;; parent: est. 1.0; read off a plot

Point of comparison: B4, ratio to parent 0.93. Against it:
- B1 — lower, 0.04
- B2 — lower, 0.82
- B3 — lower, 0.87
- B5 — lower, 0.26
- B6 — lower, 0.9
- B7 — higher, 1.1
- B8 — lower, 0.57
